Source: patent KR20210043475A (dated 2021)

B1: YBL-007 (항-PD-L1 모 항체) (antibody, V domains shown)
VH: QMQLVQSGAEVKKPGSSVKVSCKASGGTFSSYAISWVRQAPGQGLEWMGRIIPILGIANYAQKFQGRVTITADKSTSTAYMELSSLRSEDTAVYYCAKPRDGYNLVAFDIWGQGTMVTVSS
VL: QLVLTQPPSVSGAPGQRVTISCTGSSSNIGAGYDVHWYQQLPGAAPKLLIYGDINRPSGVPDRFSGSKSGISASLAITGLQAEDEADYYCQSYDSSLSGGVFGGGTKLTVLR
notes: Parent IgG; also called anti-PD-L1 parent antibody (Y-Biologics Inc.)
B2: ACE-31 (항-CD3 Fab × 항-PD-L1 Fv) (bispecific antibody)
heavy 1: EVQLQQSGPELVKPGPSMKISCKASGYSFTGYTMNWVKQSHGKNLEWMGLINPYKGVSTYNQKFKDKATLTVDKSSSTAYMELLSLTSEDSAVYYCARSGYYGDSDWYFDVWGQGTTLTVFSASTKGPSVFPLAPSSKSTSGGTAALGCLVKDYFPEPVTVSWNSGALTSGVHTFPAVLQSSGLYSLSSVVTVPSSSLGTQTYICNVNHKPSNTKVDKKVEPKSCDKTHTCPPCPPCPAPELLGGPGGGGSGGGGSQMQLVQSGAEVKKPGSSVKVSCKASGGTFSSYAISWVRQAPGQGLEWMGRIIPILGIANYAQKFQGRVTITADKSTSTAYMELSSLRSEDTAVYYCAKPRDGYNLVAFDIWGQGTMVTVSS
heavy 2: EVQLQQSGPELVKPGPSMKISCKASGYSFTGYTMNWVKQSHGKNLEWMGLINPYKGVSTYNQKFKDKATLTVDKSSSTAYMELLSLTSEDSAVYYCARSGYYGDSDWYFDVWGQGTTLTVFSASTKGPSVFPLAPSSKSTSGGTAALGCLVKDYFPEPVTVSWNSGALTSGVHTFPAVLQSSGLYSLSSVVTVPSSSLGTQTYICNVNHKPSNTKVDKKVEPKSCDKTHTCPPCPPCPAPELLGGPGGGGSQLVLTQPPSVSGAPGQRVTISCTGSSSNIGAGYDVHWYQQLPGAAPKLLIYGDINRPSGVPDRFSGSKSGISASLAITGLQAEDEADYYCQSYDSSLSGGVFGGGTKLTVLR
light: DIQMTQTTSSLSASLGDRVTISCRASQDIRNYLNWYQQKPDGTVKLLIYYTSRLHSGVPSKFSGSGSGTDYSLTISNLEQEDIATYFCQQGNTLPWTFAGGTKLEIKRTVAAPSVFIFPPSDEQLKSGTASVVCLLNNFYPREAKVQWKVDNALQSGNSQESVTEQDSKDSTYSLSSTLTLSKADYEKHKVYACEVTHQGLSSPVTKSFNRGEC
notes: also called ACE-31-VH / ACE-31-VL / ACE-31-LC
B3: ACE-05 (항-PD-L1 Fab × 항-CD3 Fv) (bispecific antibody)
heavy 1: not shown
heavy 2: not shown
light: QLVLTQPPSVSGAPGQRVTISCTGSSSNIGAGYDVHWYQQLPGAAPKLLIYGDINRPSGVPDRFSGSKSGISASLAITGLQAEDEADYYCQSYDSSLSGGVFGGGTKLTVLRSVAAPSVFIFPPSDEQLKSGTASVVCLLNNFYPREAKVQWKVDNALQSGNSQESVTEQDSKDSTYSLSSTLTLSKADYEKHKVYACEVTHQGLSSPVTKSFNRGEC
notes: also called ALiCE; ACE-05-VH / ACE-05-VL / ACE-05-LC

Tests used:
[1] = molecular target: T1, PD-L1-his (human, UniProt Q9NZQ7 19-238, limits assumed); experiment: SPR (Biacore 8K), PD-L1-his immobilised on CM5 chip, binder as analyte
T1 construct: also called 인간 PD-L1; not shown: his tag
T1 sequence (Q9NZQ7 19-238 limits assumed): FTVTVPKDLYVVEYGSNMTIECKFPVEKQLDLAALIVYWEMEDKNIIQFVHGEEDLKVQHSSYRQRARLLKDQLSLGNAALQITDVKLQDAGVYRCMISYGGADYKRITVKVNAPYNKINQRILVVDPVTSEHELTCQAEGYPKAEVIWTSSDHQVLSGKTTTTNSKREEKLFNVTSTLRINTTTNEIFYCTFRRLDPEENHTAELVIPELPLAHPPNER

[2] = molecular target: T2, PD-L1 on cells (human, UniProt Q9NZQ7 19-290); experiment: flow cytometry, apparent affinity on PD-L1 + Karpas-299 cells
T2 construct: whole, on cells; the tumour lines are human lines; The cell line of each result is named under assay or readout; also called PD-L1 + Karpas-299 세포; PD-L1 + HCC827
T2 sequence (Q9NZQ7 19-290): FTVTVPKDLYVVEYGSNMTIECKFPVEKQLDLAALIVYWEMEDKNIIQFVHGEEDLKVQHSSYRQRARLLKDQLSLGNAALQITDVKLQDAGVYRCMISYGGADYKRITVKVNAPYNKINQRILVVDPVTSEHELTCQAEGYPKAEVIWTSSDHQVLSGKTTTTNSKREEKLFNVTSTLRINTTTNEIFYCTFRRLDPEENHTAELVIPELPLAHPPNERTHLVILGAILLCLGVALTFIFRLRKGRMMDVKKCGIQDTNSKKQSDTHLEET

[3] = molecular target: T3, CD3 on T cells (UniProt P07766 23-207); experiment: flow cytometry, apparent affinity on CD3 + Jurkat T cells
T3 construct: whole, on cells; also called CD3 + Jurkat T 세포; Jurkat T 세포의 CD3
T3 sequence (P07766 23-207): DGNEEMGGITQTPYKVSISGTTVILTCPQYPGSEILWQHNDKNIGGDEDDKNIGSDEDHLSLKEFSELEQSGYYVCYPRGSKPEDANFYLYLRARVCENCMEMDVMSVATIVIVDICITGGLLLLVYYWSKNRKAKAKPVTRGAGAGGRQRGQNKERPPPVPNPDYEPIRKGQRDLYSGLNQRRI

[4] = molecular target: T1, PD-L1-his; experiment: SPR (Biacore 8K); ratio of KD against YBL-007 on PD-L1
[5] = molecular target: T1, PD-L1-his; experiment: SPR (Biacore 8K), PD-L1-his immobilised on CM5 chip, binder as analyte; monovalent stem Fv
[6] = molecular target: T2, PD-L1 on cells; experiment: cell-based or functional assay

Binder | Kd [1] [nM] | Kd [2] [nM] | Kd [3] [nM] | fold lower binding affinity than the parent antibody YBL-007 [4] [fold] | Kd [5] [nM] | T 세포 활성화 효율 (EC50); PD-1/PD-L1 blockade bioassay, NFAT-luciferase, PD-L1/aAPC CHO-K1 + PD-1 Jurkat [6] [nM] | T 세포 활성화 효율, fold against BiTE-05; PD-1/PD-L1 blockade bioassay [6] [fold] | 표적 사멸 활성 (EC50), LDH release, PD-L1 + HCC827 cells with effector cells (PBMC) [6] [nM] | 표적 사멸 활성 (EC50), LDH release, PD-L1 + MDA-MB-231 cells with effector cells (CD3 + T cells) [6] [nM]
B1 | 0.646 | – | – | – | – | – | – | – | –
B2 | – | 20.6 | 0.856 | 40 | 27.2 | – | – | – | –
B3 | 0.678 | 0.0314 | 52.4 | – | – | 0.21 | 5 | 0.00197 | 0.00837
